Results as given in doi:10.1101/2020.12.02.408153.

Legend:
Assay in all cases: SPR
[1] = biological target: SARS-CoV-2 extended S1 subunit (SARS-CoV-2) (UniProt P0DTC2)
[2] = biological target: SARS-CoV-2 spike glycoprotein ectodomain with poly-histidine tag (SARS-CoV-2 | bacteriophage T4) (UniProt P0DTC2)
[3] = biological target: SARS-CoV-2 spike glycoprotein ectodomain with double Strep II tag (SARS-CoV-2 | bacteriophage T4) (UniProt P0DTC2)

Chain of human angiotensin converting enzyme 2 (Q9BYF1 20-611): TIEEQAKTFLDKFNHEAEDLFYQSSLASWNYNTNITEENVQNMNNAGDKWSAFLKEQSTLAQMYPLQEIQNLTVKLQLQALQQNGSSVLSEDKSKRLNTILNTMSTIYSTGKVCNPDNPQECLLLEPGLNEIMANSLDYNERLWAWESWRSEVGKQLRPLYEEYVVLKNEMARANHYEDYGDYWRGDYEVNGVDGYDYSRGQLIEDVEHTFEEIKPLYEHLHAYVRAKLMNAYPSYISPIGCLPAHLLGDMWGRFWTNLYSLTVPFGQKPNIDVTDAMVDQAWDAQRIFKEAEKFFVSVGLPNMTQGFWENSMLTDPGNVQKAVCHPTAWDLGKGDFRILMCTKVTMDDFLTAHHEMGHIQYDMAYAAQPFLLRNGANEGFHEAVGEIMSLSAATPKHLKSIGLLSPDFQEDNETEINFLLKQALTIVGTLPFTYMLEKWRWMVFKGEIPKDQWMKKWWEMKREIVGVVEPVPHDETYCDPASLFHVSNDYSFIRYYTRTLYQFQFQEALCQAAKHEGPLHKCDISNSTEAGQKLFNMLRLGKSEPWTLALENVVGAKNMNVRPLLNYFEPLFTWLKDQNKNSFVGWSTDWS

Row | Substance | Kd [1] | Kd [2] | Kd [3] | IC50 [1] | IC50 [3]
1 | human angiotensin converting enzyme 2 (from UniProt Q9BYF1-1 20-611) (receptor) | 610 nM | 370 nM | 370 nM | – | –
2 | LL-37 (peptide) | 200 nM | 420 nM | 410 nM | 170 nM | 740 nM
